These are literature values, as cited in publication PMC10648573.

The target in data set [1] is NGALR 1-105 (Homo sapiens) (UniProt Q8WUG5).
The target of the next data set is 24p3R (Homo sapiens) (UniProt Q8WUG5).
The target in data set [2] is NGALR 1-105 (Homo sapiens) (UniProt Q8WUG5). This is another data set of the same source.
The next data set addresses megalin (Homo sapiens) (UniProt P98164).

Like-named read-outs stand apart in the source and are kept apart here.

Sequence of UniProt P98164 (P98164 26-4423): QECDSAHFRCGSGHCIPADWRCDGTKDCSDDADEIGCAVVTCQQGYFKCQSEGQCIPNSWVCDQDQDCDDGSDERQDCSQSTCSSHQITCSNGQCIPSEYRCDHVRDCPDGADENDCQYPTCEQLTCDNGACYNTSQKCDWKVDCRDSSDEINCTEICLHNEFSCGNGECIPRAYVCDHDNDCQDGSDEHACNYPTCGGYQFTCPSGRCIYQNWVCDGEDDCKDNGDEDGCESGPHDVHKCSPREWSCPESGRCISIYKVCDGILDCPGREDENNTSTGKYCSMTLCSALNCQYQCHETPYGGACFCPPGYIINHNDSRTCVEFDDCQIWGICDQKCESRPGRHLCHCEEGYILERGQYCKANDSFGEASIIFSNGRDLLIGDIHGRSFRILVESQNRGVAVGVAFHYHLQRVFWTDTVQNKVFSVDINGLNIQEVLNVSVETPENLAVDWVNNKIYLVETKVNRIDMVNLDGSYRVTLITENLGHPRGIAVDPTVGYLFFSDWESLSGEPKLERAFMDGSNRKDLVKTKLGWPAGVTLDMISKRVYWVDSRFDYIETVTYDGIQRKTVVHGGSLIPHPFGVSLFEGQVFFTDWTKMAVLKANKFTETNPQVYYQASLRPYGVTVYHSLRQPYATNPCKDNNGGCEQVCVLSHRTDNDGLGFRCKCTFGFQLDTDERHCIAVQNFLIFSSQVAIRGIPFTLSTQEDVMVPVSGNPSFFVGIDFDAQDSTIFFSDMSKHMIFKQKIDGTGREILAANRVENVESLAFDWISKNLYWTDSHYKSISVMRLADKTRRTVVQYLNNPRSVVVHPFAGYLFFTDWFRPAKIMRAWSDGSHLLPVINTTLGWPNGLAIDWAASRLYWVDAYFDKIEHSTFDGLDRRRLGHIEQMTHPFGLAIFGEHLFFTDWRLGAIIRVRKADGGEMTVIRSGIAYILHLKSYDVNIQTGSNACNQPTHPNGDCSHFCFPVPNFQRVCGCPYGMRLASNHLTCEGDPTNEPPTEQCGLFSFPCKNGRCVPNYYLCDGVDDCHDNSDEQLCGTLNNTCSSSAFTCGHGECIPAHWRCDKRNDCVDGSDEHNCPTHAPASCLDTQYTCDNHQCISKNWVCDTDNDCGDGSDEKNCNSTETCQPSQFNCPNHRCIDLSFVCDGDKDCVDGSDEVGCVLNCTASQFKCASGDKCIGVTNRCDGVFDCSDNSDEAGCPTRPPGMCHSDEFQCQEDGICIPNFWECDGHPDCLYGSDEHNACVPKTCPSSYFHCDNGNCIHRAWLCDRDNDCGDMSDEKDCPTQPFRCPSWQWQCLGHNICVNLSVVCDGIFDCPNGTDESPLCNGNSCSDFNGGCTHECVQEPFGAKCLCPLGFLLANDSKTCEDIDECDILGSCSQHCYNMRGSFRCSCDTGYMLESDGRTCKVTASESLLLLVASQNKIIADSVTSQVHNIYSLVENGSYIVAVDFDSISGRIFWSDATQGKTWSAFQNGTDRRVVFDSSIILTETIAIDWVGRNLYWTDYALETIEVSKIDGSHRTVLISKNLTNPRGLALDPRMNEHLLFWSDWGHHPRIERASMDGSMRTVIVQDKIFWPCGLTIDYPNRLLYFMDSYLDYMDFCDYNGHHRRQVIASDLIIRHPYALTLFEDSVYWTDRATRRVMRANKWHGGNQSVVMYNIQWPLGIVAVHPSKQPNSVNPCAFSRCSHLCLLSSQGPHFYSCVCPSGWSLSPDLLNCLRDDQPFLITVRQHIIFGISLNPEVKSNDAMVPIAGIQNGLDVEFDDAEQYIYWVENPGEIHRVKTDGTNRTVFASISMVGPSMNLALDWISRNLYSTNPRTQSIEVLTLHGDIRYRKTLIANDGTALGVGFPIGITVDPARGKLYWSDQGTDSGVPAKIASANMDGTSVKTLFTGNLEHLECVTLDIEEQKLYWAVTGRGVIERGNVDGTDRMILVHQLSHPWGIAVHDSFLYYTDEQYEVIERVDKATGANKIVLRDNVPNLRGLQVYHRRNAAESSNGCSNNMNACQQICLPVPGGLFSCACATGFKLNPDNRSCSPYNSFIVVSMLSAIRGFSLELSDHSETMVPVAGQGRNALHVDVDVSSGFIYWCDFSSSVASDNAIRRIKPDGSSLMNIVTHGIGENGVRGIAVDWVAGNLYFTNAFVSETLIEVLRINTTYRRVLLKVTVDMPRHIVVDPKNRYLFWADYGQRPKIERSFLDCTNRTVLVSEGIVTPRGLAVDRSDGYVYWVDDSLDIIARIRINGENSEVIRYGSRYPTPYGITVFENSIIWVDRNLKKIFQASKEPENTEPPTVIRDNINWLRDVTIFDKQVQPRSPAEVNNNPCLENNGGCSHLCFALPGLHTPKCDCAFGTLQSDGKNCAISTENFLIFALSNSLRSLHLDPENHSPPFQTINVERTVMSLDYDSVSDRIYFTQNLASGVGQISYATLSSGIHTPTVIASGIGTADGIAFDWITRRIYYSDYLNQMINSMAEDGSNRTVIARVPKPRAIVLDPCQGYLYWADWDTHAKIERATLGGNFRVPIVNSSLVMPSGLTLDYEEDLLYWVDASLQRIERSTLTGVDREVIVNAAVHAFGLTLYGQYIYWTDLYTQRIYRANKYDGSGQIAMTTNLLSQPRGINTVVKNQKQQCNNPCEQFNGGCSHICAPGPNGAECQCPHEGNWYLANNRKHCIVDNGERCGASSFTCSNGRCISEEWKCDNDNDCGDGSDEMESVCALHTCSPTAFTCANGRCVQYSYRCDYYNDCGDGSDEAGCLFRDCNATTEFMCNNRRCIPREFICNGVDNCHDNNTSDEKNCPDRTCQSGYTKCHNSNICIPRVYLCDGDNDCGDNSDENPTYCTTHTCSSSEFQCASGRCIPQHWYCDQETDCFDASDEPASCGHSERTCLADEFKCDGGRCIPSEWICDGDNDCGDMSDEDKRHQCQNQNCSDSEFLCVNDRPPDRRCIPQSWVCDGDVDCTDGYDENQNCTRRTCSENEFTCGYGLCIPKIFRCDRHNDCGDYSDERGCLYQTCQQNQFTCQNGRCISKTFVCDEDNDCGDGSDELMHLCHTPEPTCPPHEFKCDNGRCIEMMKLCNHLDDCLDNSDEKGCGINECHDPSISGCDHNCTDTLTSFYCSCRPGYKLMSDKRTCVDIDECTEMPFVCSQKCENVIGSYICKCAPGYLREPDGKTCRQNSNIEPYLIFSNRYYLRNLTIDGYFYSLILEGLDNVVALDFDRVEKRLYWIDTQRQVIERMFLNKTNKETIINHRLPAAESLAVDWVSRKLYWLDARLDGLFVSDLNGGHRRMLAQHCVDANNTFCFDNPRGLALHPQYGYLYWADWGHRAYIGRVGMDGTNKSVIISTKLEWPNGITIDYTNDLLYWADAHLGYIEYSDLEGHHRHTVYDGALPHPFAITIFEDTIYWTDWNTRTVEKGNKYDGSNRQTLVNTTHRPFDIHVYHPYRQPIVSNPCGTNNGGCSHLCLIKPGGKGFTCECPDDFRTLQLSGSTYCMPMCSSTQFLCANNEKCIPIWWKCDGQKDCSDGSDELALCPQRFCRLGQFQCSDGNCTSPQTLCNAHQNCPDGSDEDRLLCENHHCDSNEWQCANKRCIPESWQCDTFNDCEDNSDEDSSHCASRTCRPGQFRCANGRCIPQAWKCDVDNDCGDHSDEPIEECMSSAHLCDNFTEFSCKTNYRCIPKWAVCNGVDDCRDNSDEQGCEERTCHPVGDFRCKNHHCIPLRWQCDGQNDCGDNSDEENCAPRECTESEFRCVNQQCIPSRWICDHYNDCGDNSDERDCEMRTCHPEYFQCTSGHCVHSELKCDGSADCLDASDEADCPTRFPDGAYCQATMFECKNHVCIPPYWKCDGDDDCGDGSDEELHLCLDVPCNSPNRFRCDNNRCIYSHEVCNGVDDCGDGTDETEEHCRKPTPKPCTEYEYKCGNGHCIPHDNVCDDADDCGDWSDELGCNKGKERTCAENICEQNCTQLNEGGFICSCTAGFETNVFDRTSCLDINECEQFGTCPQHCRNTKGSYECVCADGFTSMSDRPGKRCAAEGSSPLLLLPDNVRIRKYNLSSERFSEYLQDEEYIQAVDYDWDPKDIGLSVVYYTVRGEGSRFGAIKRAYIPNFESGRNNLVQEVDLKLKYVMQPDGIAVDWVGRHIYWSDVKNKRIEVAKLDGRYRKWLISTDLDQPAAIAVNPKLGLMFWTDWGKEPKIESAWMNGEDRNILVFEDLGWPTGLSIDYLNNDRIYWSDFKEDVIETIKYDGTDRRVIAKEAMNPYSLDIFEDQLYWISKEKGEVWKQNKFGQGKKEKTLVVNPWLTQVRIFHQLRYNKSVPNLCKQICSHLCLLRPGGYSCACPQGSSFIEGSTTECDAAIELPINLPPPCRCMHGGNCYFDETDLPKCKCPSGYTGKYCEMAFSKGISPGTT

For Lipocalin-2 (apo) (from UniProt P80188), in data set [1], the Kd (as a rule, the concentration at which binding is half-saturated) is 8.5 µM.
For Lipocalin-2 (from UniProt P80188), the Kd with 24p3R (Homo sapiens) is 92 pM; in data set [2] it was 20 µM; with megalin (Homo sapiens) it was 0.06 µM.
